Substrate in data set [1]: OC[C@H]1OC(O)[C@H](O)[C@@H](O)[C@@H]1O
Nature of the data set: cells, lysate or membranes named. Format: biochemical, Aspergillus niger. The conditions noted are these: other: 3 ml culture, crude enzyme, glucose 1-40 mM, pH 6.5, DCIP/PMS.

Substrate in data set [2]: OC[C@H]1OC(O)[C@H](O)[C@@H](O)[C@@H]1O
Nature of the data set: cells, lysate or membranes named. Particulars: other: 60 ml culture, crude enzyme, glucose 1-40 mM, pH 6.5, DCIP/PMS, 20.0 °C.

This note sets out measurements from patent US9512459B2 (priority 2011, dated 2016).

B1: Aspergillus niger glucose dehydrogenase (FAD-GDH) Ang-n2 variant E195K/Q196E/G73A, SEQ ID NO: 2 (Aspergillus niger CBS 513.88; E195K/G73A/Q196E) (protein)
chain: YDFVIVGGGTSGLVVANRLSELSDVTVAVIEAGESALNNFNVSNVMAYSTAFGTEVDWAYQTENQTYAGGLQQTIRAGKALGGTSTINGMSYTRAEDVQIDNWEVLGNDGWNWKNLFQYYKKSEGFQVPTKDQIAHGASYNASYHGLNGPLKVGWPNSMTNSSVFPVLKETFEKLGVQYNPDSEGGKMVGFTVHPDTLDREMNVREDAARAYYWPYEARSNLKIISNTRANKVIWANTTQGEAVAVGIEVTNAYGTETIYADKEVILSAGALRSPAILELSGIGNPDVLNKHNIPVKVNITTVGENLQDQTNNALSWEGVDTLTGLATFSVLPSVNQLYGDNVTALASYVKSQLASYAKTVASASNGAVKEANLVEAFERQYDLIFNSQVPYTEVVFAPSGNSFAVEYWPLLPFSRGSVHIQSANASDYPAINPNYFMFDQDAEAQVTVAQYIRKALGTAPLNSLVGEEVSPGLDVLPASASSATWTKWVKENYRTNYHPVGTTSMLPREKGGVVSPELKVYGTKNVRVVDASVLPFQLCGHLTSTLYAVAERASDLIKESY
notes: E. coli BL21(DE3), crude extract, small-scale culture
B1: in data set [1], the Km turned out to be 5.5 mM and the Vmax stood at 5.0 U/mg protein.

B2: Aspergillus niger glucose dehydrogenase (FAD-GDH) Ang-n1, wild type, SEQ ID NO: 2 (20 N-terminal residues deleted, Ala21 substituted by Met) (Aspergillus niger … (protein)
chain: MDSPAHYDFVIVGGGTSGLVVANRLSELSDVTVAVIEAGESALNNFNVSNVMGYSTAFGTEVDWAYQTENQTYAGGLQQTIRAGKALGGTSTINGMSYTRAEDVQIDNWEVLGNDGWNWKNLFQYYKKSEGFQVPTKDQIAHGASYNASYHGLNGPLKVGWPNSMTNSSVFPVLEQTFEKLGVQYNPDSEGGKMVGFTVHPDTLDREMNVREDAARAYYWPYEARSNLKIISNTRANKVIWANTTQGEAVAVGIEVTNAYGTETIYADKEVILSAGALRSPAILELSGIGNPDVLNKHNIPVKVNITTVGENLQDQTNNALSWEGVDTLTGLATFSVLPSVNQLYGDNVTALASYVKSQLASYAKTVASASNGAVKEANLVEAFERQYDLIFNSQVPYTEVVFAPSGNSFAVEYWPLLPFSRGSVHIQSANASDYPAINPNYFMFDQDAEAQVTVAQYIRKALGTAPLNSLVGEEVSPGLDVLPASASSATWTKWVKENYRTNYHPVGTTSMLPREKGGVVSPELKVYGTKNVRVVDASVLPFQLCGHLTSTLYAVAERASDLIKESY
Take B2: the Michaelis-Menten constant (Km) in data set [2] was determined as 3.6 mM.

By Km is commonly meant the concentration of substrate that gives half-maximal velocity.
